Results from patent US20140072980A1.

Assays:
[1] = molecular target: IgG1 Fc/Fc monospecific antibody; experiment: flow cytometry: antibody displayed on CHO cells by CSCP FcγR, detected with Anti-hFc
[2] = molecular target: IgG1 Fc/Fc* bispecific antibody; experiment: as above

- Mean Fluorescence Intensity (MFI) [1]: 1000 MFI
- Mean Fluorescence Intensity (MFI) [2]: 1800 MFI
Substance: human FcγRI (from UniProt P12314 16-374) (receptor)
